From patent US7932226B2, “NFκB transcriptional activity inhibitory agent and anti-inflammatory agent and a steroid action enhancing agent” (St. Marianna University School of Medicine, priority 2004, dated 2011)
Each block holds one molecule with its values, some of them ahead of it.

Key:
[1] = tested on: transcriptional activity of NFκB; assay: NFκB-dependent luciferase assay in transfected COS-7 cells, TNFα-induced; assay type: cell-based
Protocol: COS-7 cells were plated into a 6-well plate (Falcon, catalog number: 35-3046) at 3.5 to 3.8×10^5 cells per well and cultured in a DMEM supplemented with 10% 56° C.-inactivated FBS (fetal bovine serum; HyClone, catalog number: SH30070.03) under the conditions of 5% CO2 and 37° C. After 18 hours, the medium was replaced with a DMEM containing charcoal-dextran treated (C/D treatment) FBS (C/D-FBS, HyClone, catalog number: SH30068.03). Each of the plasmids constructed in Example 2 was mixed as shown in Table 1 and each sample was prepared to be 4.12 μg and each was mixed with TransFast (product name) reagent (12.3 μl) and the mixture was incubated for 10 to 15 minutes. After the medium in each well was replaced, each plasmid DNA was added to the respective wells according to the amount shown in Table 1 and incubation was carried out for 1 hour, thus each DNA was transfected into COS-7 cells. The transfection efficiency was 34%. To the cells into which DNA was transfected as described above, after 24 hours, an inflammatory cytokine (TNFα, Sigma) at a final concentration of 1 ng/ml and a steroid agent (triamcinolone acetonide: TA, Sigma) at a final concentration of 120 nM were added. Further, after an additional 24 hours, luciferase activities in the cells were assayed using Dual Luciferase Assay System (Promega) by a luminometer (Turner BioSystems TD-20/20, Promega). The results are shown in FIG. 1, In FIG. 1, the luciferase activities indicating the transcriptional activity of NFκB is indicated on the vertical axis. The closed circles show the case where only TNFα was added, the closed triangles show the case where both TNFα and TA were added, the open triangles show the case where only TA was added and the open circles show the case where neither of TNFα nor TA was added, respectively.

[2] = MTI-II peptide administration experiment (behaviour and autopsy observation); assay type: in vivo; conditions: 10 mg/kg intraperitoneal, ICR mice
Protocol: MTI-II of SEQ ID NO: 1 (Gene Bank Accession No. M24398) was purified in accordance with the purification method described in the document (Eur. J. Biochem., (2000), 267, 155-162). It was dissolved in physiological saline at a concentration of 1.0 mg/ml and intraperitoneally administered to 5 male (an average body weight of 28.4 g) and 5 female (an average body weight of 25.0 g) ICR mice at 5 weeks of age at 10 mg/kg of body weight. As a control, physiological saline was administered to 2 male and 2 female ICR mice of the same age. […] At 24 hours after the administration, they were sacrificed and autopsy was carried out and the swelling of the liver, kidney, spleen, small intestine, large intestine and thymus and the swelling of the blood vessels in the abdominal cavity were observed by the naked eye. As a result, behavioral anomaly and the swelling of the liver, kidney, spleen, small intestine, large intestine, thymus and blood vessels were not observed in all specimens.

[3] = tested on: transcriptional activity of NFκB; assay: NFκB luciferase assay in the presence of coactivator p300; assay type: cell-based
Protocol: Then, in order to confirm the action site of MTI-II, the effect of MTI-II was investigated when a coactivator p300, which acts on the transcriptional activity of NFκB, was expressed.
A coactivator p300 expression plasmid (pCMVβ-p300) was purchased from Upstate. DNA transfection was carried out in the same manner as in Example 3 except that the amount of DNA was each 2.0 μg and the amount of pTri-NC or pTri-MTI was 1.0 μg. The NFκB transcriptional activity assay was carried out in the same manner as in Example 4.

[4] = OVA-sensitized rabbit knee joint inflammation model; assay type: in vivo, New Zealand White rabbits; conditions: rabbits, 0.4 mg/ml in PBS into the right knee joint, 10 administrations in 14 days
Protocol: For primary sensitization, ovalbumin (OVA)+Freund's complete adjuvant (FCA) was intradermally injected once in the dorsal area of three New Zealand White rabbits. After 2 weeks, for secondary sensitization, OVA+FCA was intradermally administered once in the dorsal area. Further, for challenge administration, at 5 days after the secondary sensitization, OVA was administered once into the right knee joint. A His-tag-TAT-MTI-II solution (at 0.4 mg/ml in PBS solution) was administered into the right knee joint every other day starting from one day before the challenge administration of OVA. Incidentally, during 5 days from the next day of the challenge administration of OVA, the His-tag-TAT-MTI-II solution was administered once daily. The administration period was 14 days (number of administration: 10 times in total), and in a control group, PBS was administered into the right knee joint. An anti-inflammatory action was examined based on the blood sedimentation rate measurement and the pathological specimens of both knee joints.

[5] = tested on: transcriptional activity of NFκB; assay: NFκB luciferase assay in HeLa cells with added His-tag-TAT-MTI-II protein; assay type: cell-based; conditions: protein 30-300 μg per well added 6 hours before TNFα 1 ng/ml
Protocol: HeLa cells were plated into a 6-well plate at 2.0×10^5 cells per well and cultured in a DMEM (HyClone) supplemented with 10% FBS (fetal bovine serum) for 18 hours. Thereafter, the medium was replaced with a medium containing charcoal-dextran treated (C/D treatment) FBS (C/D-FBS). Further, after an additional 24 hours, each plasmid DNA blended in accordance with the amount shown in the following Table 2 was added to the respective wells, and these HeLa cells were transfected with NFκB-Luc gene.
At 24 hours after the transfection, to the HeLa cells in each well, the His-tag-TAT-MTI-II fusion protein prepared in Example 7 was added according to the amount shown in Table 3, and 6 hours thereafter, an inflammatory cytokine (TNFα, Sigma) was further added thereto in an amount to give a concentration of 1 ng/ml. After 24 hours, in the same manner as in Example 4, luciferase activities in the cells were assayed using Dual Luciferase Assay System (Promega).

Molecule: TNFα [reference compound]
luciferase activity (transcriptional activity of NFκB) versus no TNFα ([1]; TNFα 1 ng/ml only, MTI-II 0 μg): about 10 times

transcriptional activity of NFκB compared with the case where MTI-II was not expressed ([3]; MTI-II expressed together with p300, TNFα (pTri-MTI 1.0 μg)): inhibited to about half or more
transcriptional activity of NFκB compared with the case where MTI-II was not expressed ([3]; MTI-II expressed together with p300, TNFα, steroid agent further added): inhibited to about half or more
transcriptional activity of NFκB compared with the absence of the coactivator ([3]; MTI-II with p300, TNFα, used together with the steroid agent): inhibited to about half
B1: MTI-II: 102 amino acid polypeptide (SEQ ID NO: 2), same sequence as parathymosin; encoded by SEQ ID NO: 1 (protein, listed as Homo sapiens)
chain: MSEKSVEAAAELSAKDLKEKKDKVEEKAGRKERKKEVVEEEENGAEEEEEETAEDGEDDDEGDEEDEEEEEEEDEGPVRKRTAEEEDEADPKRQKTENGASA
transcriptional activity of NFκB ([1]; TNFα 1 ng/ml, MTI-II expressed (0-3.0 μg vector)): inhibited depending on the amount of MTI-II
NFκB transcriptional activity ([1]; TNFα, simultaneous use of MTI-II and the steroid agent (TA 120 nM)): inhibited further more
swelling of the liver, kidney, spleen, small intestine, large intestine, thymus and blood vessels ([2]; autopsy at 24 hours, naked eye): not observed
behavioral anomaly ([2]; observed for 24 hours): not observed

B2: His-tag-TAT-MTI-II: His-tag-TAT-MTI-II fusion protein (SEQ ID NO: 11) expressed in E. coli (protein)
chain: MAHHHHHHSLVPRGSRRRQRRKKRGLQMSEKSVEAAAELSAKDLKEKKDKVEEKAGRKERKKEVVEEEENGAEEEEEETAEDGEDDDEGDEEDEEEEEEEDEGPVRKRTAEEEDEADPKRQKTENGASA
modifications: HisTag-TAT-MTI-II
anti-inflammatory action (blood sedimentation rate, pathological specimens of knee joints) [4]: anti-inflammatory effect
transcriptional activity of NFκB [5]: inhibited depending on the amount of TAT-MTI-II
